Test results as given in the DeepSol protein solubility set.

Test: soluble on expression in E. coli; label from the status in PepcDB or PDB records

| Sequence | soluble on expression in E. coli |
| --- | --- |
| MAHHHHHHMVQLTINNARGVTLCRVSLPANATVQQLLLQLTVAKPELRQAQAIRNDVRHVTHRLTPASTTTTTTTSVVSSNAQTLLQAGLVGQGATAETLVVLMAADAPAAASSAAAAAPSPTKAVAAQILDLFGCASASPSAGVRSQASVVPSTMDERQLELQRRIYAQIQQQQIDENLANALEYTPEAFAKVTMLYVPCTINQVLVKAFVDSGAQNSIMNKRTAERCGLMRLVDVRMRGVAVGVGRQEICGRIHMTPVNLAGMYIPFAFYVIEDQAMDLIIGLDQLKRHQMMIDLKHNCLTIDNINVPFLPENDLPALAALGDDENAMHAPRHQDPATTATTASNPAAPVLSEGERQARIEGFMTVSGITDPTQAAELLEAADWNPNVAAALLFDT | soluble |
| MAHHHHHHMVTVPKLQAMREAGEKIAMLTSYDASFAALLDRANVDVQLIGDSLGNVLQGQATTLPVTLDDIAYHTACVARAQPRGLVVADLPFGTYGTPADAFASAVKLMRAGAQMVKLEGGEWLAETVRFLVERAVPVCAHVGLTPQSVHAFGGFKVQGKTEAGAAQLLRDARAVEEAGAQLIVLEAVPTLVAAEVTRELSIPTIGIGAGAECSGQVLVLHDMLGVFPGKRPRFVKDFMQGQPSIFAAVEAYVRAVKDGSFPGPEHSF | soluble |
| MAHHHHHHMWQTVVRRYRLQPTSLAAFLESNCMVAKPPTAALHSDSNLVVAETNSLSIFENLAAEESLIRGLSLDTKQRLLLFYVNRPCVVVGRNQNIFQEVSLRRAAADGVCVARRASGGGAVFHDEGNLCFSFITHRTRYAPEKTIQLVRLGLCASYAIDPARLTTTGRHDLFLDGRKITGSAMRVQRDIAYHHCTLLVDTPHASVGRYLRPEGDYVAFKTSSVGSVRSPVTSLAESGCIADGPGAVAALKGNMADFFLAEGDRVLNAATPWELDAVELRQRFTTARHRCANAPLFALDVVGAVAADMPFIEREGRQPARGDAATLGEAVHKAASKEWAYAMPTFTSTVFLSDSELRRRLKTLSVRQHVALLCSLAEEELLAVLQRCVLEGSEGPEAVAGTEAGLHLVTTVEHRLVTSVVVRRVAPTTATASAVAPSSASSGGWVQRYLSALLVGHPCDAAIEGLECVGDTTAVVQGLVHEAGSLCPDLPDAVGDAALLMVARVLLDVWRDKNVFDIAT | not soluble |
| MAHHHHHHMWRLRSPGPCAGHVARPAAFTACRVVVGSSGATSADAASFRTTSAGAALVVAHRRKSYHFFMNLDDPDATRRRIEEDLDRLASDEKKDTTAYLHSLLNLALSHYQRGDFISARDMADYTHQKALVHNSKSSLIYFTATTCAHCAEALAKEYEAHLQRKDEQSHVSATLTPEPSVVFSARRAIKKLRADAERYRGIAHRVYHRPDMAFMRGSGGGGSGRWRSSARHAEGRDTRHTWADDSSNNGVDEDYIPHMYGPRWQDRRKRPEHAEMKHYYKHQCGTSPSSRGKTQWNVPK | not soluble |
| MAHHHHHHMYEVYYLNEHDEFEKKKKKNEEIQSSLILKNHAISSEKKSKLVKHNIYEGGYTIWECTWDMLKFFHKEGFDFNNKQVLELGCGHGLVGIKVLLDNGNVVFQELNKEVINDVLLPNIKKNLKMKLKKKKLKENKHYMKINNDKITCYVINKPWHKLNSKLQKKKLNCFDFILGNEILYRKENYYHILKILKKNLKKGGKAYFGSKSYYFGFEDGTGSNSFVTYVNNNEHFNFVARIIQTTTGKSVYSKDIIEVTFSPNND | not soluble |
| MAHHHHHHMYYADVDYEVPSRVVQLTDATFDTIVMDPTKDVFVLYCVTWSRHCRSAVKLWADLSISQFKRPTADTFVAALIDAEAFPETAKRMGVKSYPTMLFYTRLEKATPLEYNGQGLLPLLDSFVFQNS | not soluble |
| MAHHHHHHSLDASTLFKKVKVKRVLGSLEQQIDDITTDSRTAREGSIFVASVGYTVDSHKFCQNVADQGCKLVVVNKEQSLPANVTQVVVPDTLRVASILAHTLYDYPSHQLVTFGVTGTNGKTSIATMIHLIQRKLQKNSAYLGTNGFQINETKTKGANTTPETVSLTKKIKEAVDAGAESMTLEVSSHGLVLGRLRGVEFDVAIFSNLTQDHLDFHGTMEAYGHAKSLLFSQLGEDLSKEKYVVLNNDDSFSEYLRTVTPYEVFSYGIDEEAQFMAKNIQESLQGVSFDFVTPFGTYPVKSPYVGKFNISNIMAAMIAVWSKGTSLETIIKAVENLEPVEGRLEVLDPSLPIDLIIDYAHTADGMNKLIDAVQPFVKQKLIFLVGMAGERDLTKTPEMGRVACRADYVIFTPDNPANDDPKMLKAELAKGATHQNYIEFDDRAEGIKHAIDIAEPGDTVVLASKGREPYQIMPGHIKVPHRDDLIGLEAAYKKFGGGPVDQEG | soluble |
| MAHHHHHHSLDSFIMRLLNKPVPGGVAVVDLGEEGPPPRAFYQGKPVLVVREEGRRWIAVVGIPLSTKPGPQKLEVRAATGNHEERFSVGSKHYREQRITLKNKRQVNPLPEDLKRIERELAEQTAAYRRFSPGLPSNLMLDKPVDGPLSSPFGLRRFFNGEERNPHSGLDFAVPAGTPIKAPAAGKVILIGDYFFNGKTVFVDHGQGFISMFCHLSKIDVKLGQQVPRGGVLGKVGATGRATGPHMHWNVSLNDARVDPAIFIGAFQPEG | soluble |
| MAHHHHHHSLDSLGAINKIQDFLQKQEYKTLEYNLTTTEVVMENVTAFWEEGFGELFEKAKQNNNNRKTSNGDDSLFFSNFSLLGTPVLKDINFKIERGQLLAVAGSTGAGKTSLLMMIMGELEPSEGKIKHSGRISFCSQFSWIMPGTIKENIIFGVSYDEYRYRSVIKACQLEEDISKFAEKDNIVLGEGGITLSGGQRARISLARAVYKDADLYLLDSPFGYLDVLTEKEIFESCVCKLMANKTRILVTSKMEHLKKADKILILHEGSSYFYGTFSELQNLQPDFSSKLMGCDSFDQFSAERRNSILTETLHRLSLEGDAPVSWTETKKQSFKQTGEFGEKRKNSILNPINSIRKEG | soluble |
| MAHHHHHHSLEIRAFSKYRKRALSLVRGKVLEIGVGTGKNLPYYPKDVEVIGIDFSRNMLKKAEERRRKLRLENVTLLYMDAQDLEFEDNTFDTIVSTFVFCTVPDPIKGLKEAYRVLKPGGRAIFLEHMKSESKLLNVPLYLMEPFIRTLLGTSLLRETQRNIERAGFKIEKVENLFYDIVRLIIATKDEG | soluble |
| MAHHHHHHSLIKTEFKGNNIPYEYAAGADVSDSINGNPIKSFPFEVIELPEGTKYLAWSLIDYDAIPVCGFAWIHWSVANVSVSGNSISIKADLSRTKGDYVQGKNSFTSGLLAEDFSEIENHYVGPTPPDQDHQYELTVYALDHSLNLKNGFYLNEFLKEVNQHKIDQTSINLIGRKEG | not soluble |
| MAHHHHHHSLKNTLGRQFSRATETYEKWAVPQRKSAKILVEFVKPSGLVLDLGCGTGFISEFVNDCEVVGLDISEGMAKAYREKFRKVVIGNAENLPFKDRSFDFVLSNFSLHWSDWRKSIREALRVCKNFVGVAIPVYGSVSFSEFPFPKAEEILEEFKPQEFKIINLEIPFRGMELIKFFHYTGTANFTGKKNFKTKRELIKLSKDLEKEYFKVLFLKLKSRAFEG | soluble |
| MAHHHHHHVDDDDKMFSTQVNSSLTSPTGRGSMAAPSLHPSLGPGIGSPGQLHSPISTLSSPINGMGPPFSVISSPMGPHSMSVPTTPTLGFSTGSPQLSSPMNPVSSSEDIKPPLGLNGVLKVPAHPSGNMASFTKHICAICGDRSSGKHYGVYSCEGCKGFFKRTVRKDLTYTCRDNKDCLIDKRQRNRCQYCRYQKCLAMGMKREAVQEERQRGKDRNENEVESTSSANEDMPVERILEAELAVEPKTETYVEANMGLNPSSPNDPVTNICQAADKQLFTLVEWAKRIPHFSELPLDDQVILLRAGWNELLIASFSHRSIAVKDGILLATGLHVHRNSAHSAGVGAIFDRVLTELVSKMRDMQMDKTELGCLRAIVLFNPDSKGLSNPAEVEALREKVYASLEAYCKHKYPEQPGRFAKLLLRLPALRSIGLKCLEHLFFFKLIGDTPIDTFLMEMLEAPHQMT | soluble |
| MAHPLDLNQLAQHIKQWGQSLGFQQVGICDTDLTAEEPRLQAWLDKQYHGEMAWMARHGMLRARPHELLPGTLRVISVRMNYLPAKAAFASTLNNPELGYVSRYALGRDYHKLLRQRLKKLGDQIQHYCLEQNNLDRHDLELHDLEQHDSERQGQPEQHTASEINFRPFVDSAPIMERSLAAKAGIGWVGKHSLILNRDAGSWFFLGELLIDLPLPVDKPQEEQCGRCVACMTTCPTGAIVAPYTVDARRCISYLTIELEGAIPEEFRPLMGNRIYGCDDCQLICPWNRFSQLTDEDDFSPRAVLHTPQLLDLFAWNEEKFLRVTEGSAIRRIGHLRWLRNISVALGNAPYLDSIVLALETRRGLHPMLDEHIEWAISQQLARRATQAVEVQLPQKKRLIRAIEKGLPRDA | not soluble |
| MAHQLLIGKGMITLNLKRIFLALTLLPLFAVAADDCALSDPTLTVQAYTVNPQTERVKMYWQKANGEAWGTLHALLADINSQGQVQMAMNGGIYDESYAPLGLYIENGQQKVALNLASGEGNFFIRPGGVFYVAGDKVGIVRLDAFKTSKEIQFAVQSGPMLMENGVINPRIHPNVASSKIRNGVGINKHGNAVFLLSQQATNFYDFACYAKAKLNVEQLLYLDGTISHMYMKGGAIPWQRYPFVTMISVERKGLEHHHHHH | not soluble |
| MAHRPRWTLSQVTELFEKPLLDLLFEAQQVHRQHFDPRQVQVSTLLSIKTGACPEDCKYCPQSSRYKTGLEAERLMEVEQVLESARKAKAAGSTRFCMGAAWKNPHERDMPYLEQMVQGVKAMGLEACMTLGTLSESQAQRLANAGLDYYNHNLDTSPEFYGNIITTRTYQERLDTLEKVRDAGIKVCSGGIVGLGETVKDRAGLLLQLANLPTPPESVPINMLVKVKGTPLADNDDVDAFDFIRTIAVARIMMPTSYVRLSAGREQMNEQTQAMCFMAGANSIFYGCKLLTTPNPEEDKDLQLFRKLGLNPQQTAVLAGDNEQQQRLEQALMTPDTDEYYNAAALLEHHHHHH | not soluble |
| MAICKVFRNYCKENDIQLHQANFSLSYDTNIPRQTGLSGSSAIVSAALNCLLDFYNVRHLIKVQVRPNIVLSAEKELGIVAGLQDRVAQVYGGLVHMDFSKEHMDKLGHGIYTPMDISLLPPLHLIYAENPSDSGKVHSMVRQRWLDGDEFIISSMKEVGSLAEEGRTALLNKDHSKLVELMNLNFDIRRRMFGDECLGAMNIEMVEVARRVGAASKFTGSGGAVVVFCPEGPSQVKLLEEECRKAGFTLQPVKIAPSCLNDSDIQTL | not soluble |
| MAICPELAQTDKSALANLSDETETLKNFTDEVQTSSSFSSSGGRQSSPLTSGSKLEREKQTPSLEQGDTQSELLDYKNYEKKLSKKWINYLKLKDSNFERHQPDTKLPTEITRVSDEELNALQSYCTMKINLIHRRGDSKKKTSSRHKKLHLGLDVEASERDAFSCTVPDELLNRIYFKNMRTTPKQEAAAKQHISYQCPYCNRKRAELALSAFLKQKKTLLESFLLQERIDEHLHTKDFLTRIGEAHQDFPRLSDDPRIIWKRLTEKSHIRYSGFERSETEQKMQRDGNSACHLPFSLPFLKRLTLIKPELVIVNDNV | not soluble |
